Article PMC10679500, “Posttranslational modification and heme cavity architecture of human eosinophil peroxidase—insights from first crystal structure and biochemical characterization” (The Journal of Biological Chemistry, 2023)

Target: T1, eosinophil peroxidase heavy chain (human, UniProt P11678 251-715, Glu380 ester-linked to the heme cofactor (hydroxymethyl group on pyrrole ring A); N-glycans at Asn327 and Asn363)
T1 construct: human eosinophil peroxidase (EPO), C-terminal heavy chain of the mature enzyme; G250/V251-T715; N-terminus heterogeneous (G250 or V251); first resolved residue in the crystal is Val251; One of the two polypeptides of mature leukocyte EPO; part of the sample may begin at G250; A mixture of glycoforms was crystallized; also called EPO H-chain; HC
T1 sequence (looked up): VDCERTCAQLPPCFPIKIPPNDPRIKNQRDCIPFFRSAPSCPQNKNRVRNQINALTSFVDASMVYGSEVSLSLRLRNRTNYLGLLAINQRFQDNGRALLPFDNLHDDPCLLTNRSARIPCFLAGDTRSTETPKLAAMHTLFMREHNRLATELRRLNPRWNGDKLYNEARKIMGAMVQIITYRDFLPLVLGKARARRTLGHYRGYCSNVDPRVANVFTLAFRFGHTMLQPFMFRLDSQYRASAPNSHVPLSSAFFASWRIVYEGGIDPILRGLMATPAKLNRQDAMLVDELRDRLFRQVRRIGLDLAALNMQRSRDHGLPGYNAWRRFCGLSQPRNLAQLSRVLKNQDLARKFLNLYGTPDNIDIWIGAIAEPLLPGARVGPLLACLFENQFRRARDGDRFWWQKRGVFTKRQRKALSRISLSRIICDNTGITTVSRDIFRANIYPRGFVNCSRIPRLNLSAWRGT
Assay: crystal structure; mixture of EPO glycoforms from human leukocytes, 10 mg/ml in 5 mM phosphate pH 7.0; crystallized in 0.2 M trisodium citrate pH 4.1, 20% (w/v) PEG, vapor diffusion, 22 °C; 1.6 Å; one monomer per asymmetric unit
Settings: both partners purified

B1: eosinophil peroxidase light chain (domain or fragment)
chain: not shown
modifications: Asp232 ester-linked to the heme cofactor (hydroxymethyl group on pyrrole ring C)
notes: human eosinophil peroxidase (EPO), N-terminal light chain of the mature enzyme after removal of signal peptide, propeptide (18-139) and the peptide V/AFTA/G; R140-R244/V245; C-terminus heterogeneous by MS (77.2% arginine, 23.8% valine as terminal residue); last resolved residue in the crystal is Arg244; One of the two polypeptides of mature leukocyte EPO; a minor part of the sample ends at V245; …
B1: binds.
